Data on two substances can be found in PMC4932716.

Usually stoichiometry N stands for the number of molecules, sites or subunits per partner or assembly.

Experiment [1] has as its target native ArtinM (jArtinM) (Artocarpus heterophyllus). The experiment in a line: SDS-PAGE of undenatured sample; undenatured protein (no thermal dissociation) loaded on 12.5 % SDS-PAGE, 3 μg per lane, Coomassie blue G-250.
In experiment [2] the target is recombinant ArtinM (rArtinM) (Artocarpus heterophyllus). Description: AUC; sedimentation velocity at 50,000 rpm, 20 °C, c(S) fit in SEDFIT; confirmed by sedimentation equilibrium.

With “native ArtinM (jArtinM) (natural protein)”, the stoichiometry N in experiment [1] was found to be 4.
Consider “recombinant ArtinM (rArtinM) (natural protein)”, for which the stoichiometry N in experiment [2] was 3.
